Assay results as given in EP4480965A1, “TRANSFERRIN RECEPTOR-BINDING MOLECULES, CONJUGATES THEREOF AND THEIR USES TO PREVENT OR TREAT CNS DISEASES” (Vect-Horus, priority 2023, dated 2024).
Where two headings read alike, the source gives them in different places.

Tests used:
human TfR = target: T1, human TfR (Homo sapiens, UniProt P02786); assay: Flow cytometry apparent Kd (Kd app) on CHO cells expressing hTfR fused to EGFP; format: binding; details: bioconjugates (siGFPst1, NODAGA, 68Ga), 2 µM to 30 pM, 1 hr at 4°C
T1 construct: expressed in transfected cells
T1 sequence (P02786 whole entry, the tested form may be a part): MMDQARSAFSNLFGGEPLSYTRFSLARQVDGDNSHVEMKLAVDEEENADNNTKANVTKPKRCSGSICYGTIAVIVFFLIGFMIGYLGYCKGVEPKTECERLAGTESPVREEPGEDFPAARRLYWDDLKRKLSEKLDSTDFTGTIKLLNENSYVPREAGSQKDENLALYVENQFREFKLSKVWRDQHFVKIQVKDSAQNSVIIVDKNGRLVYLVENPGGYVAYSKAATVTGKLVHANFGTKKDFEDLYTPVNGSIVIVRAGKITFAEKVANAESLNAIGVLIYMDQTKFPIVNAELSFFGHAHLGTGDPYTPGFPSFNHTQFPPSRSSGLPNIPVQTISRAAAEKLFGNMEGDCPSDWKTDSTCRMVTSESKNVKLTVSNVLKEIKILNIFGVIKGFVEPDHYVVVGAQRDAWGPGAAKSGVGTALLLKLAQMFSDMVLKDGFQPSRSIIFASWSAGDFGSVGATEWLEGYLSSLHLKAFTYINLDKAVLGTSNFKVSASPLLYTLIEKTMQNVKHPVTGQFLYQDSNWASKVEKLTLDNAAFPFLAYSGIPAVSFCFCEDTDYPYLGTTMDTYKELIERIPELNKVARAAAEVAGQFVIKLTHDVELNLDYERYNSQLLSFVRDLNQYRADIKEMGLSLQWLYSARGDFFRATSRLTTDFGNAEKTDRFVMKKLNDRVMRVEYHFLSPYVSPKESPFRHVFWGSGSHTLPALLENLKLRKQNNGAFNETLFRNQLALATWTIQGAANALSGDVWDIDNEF
Experimental: After one wash in PBS/BSA 2%, cells were incubated for 1 hr with an anti-6His tag antibody (mouse), washed twice with PBS/BSA 2%, and incubated for 45 min with an Alexa647-conjugated anti-mouse secondary antibody. […] No labeling of the CHO WT control cells was detected with all the tested VHHs (not shown).
After one wash in PBS/BSA 2%, cells were incubated for 1 hr with an anti-6His tag antibody (mouse), washed twice with PBS/BSA 2%, and incubated for 45 min with an Alexa647-conjugated anti-mouse secondary antibody. […] Fluorescence levels were assessed using an Attune NxT Flow Cytometer (Thermo Fisher Scientific). […] No labeling of the CHO WT control cells was detected with all the tested VHHs (not shown).
The binding properties of VHHs with affinity for the TfR from different species (i.e., human (h), mouse (m) and rhesus monkey (rh)) were tested using flow cytometry, and apparent affinities (Kd app) were determined. […] CHO cell lines expressing the hTfR, mTfR or rhTfR fused to EGFP were saturated with PBS/BSA 2% solution during 30 min to avoid nonspecific binding, followed by incubation with purified VHHs at increasing concentrations for 1 hr. After one wash in PBS/BSA 2%, cells were incubated for 1 hr with an anti-6His tag antibody (mouse), washed twice with PBS/BSA 2%, and incubated for 1 hr with an Alexa647-conjugated anti-mouse secondary antibody. After two last washes in PBS/BSA 2%, cells were fixed by incubation for 15 min with PBS/PFA 2%, washed once with PBS and finally resuspended in PBS. Fluorescence levels were assessed using an Attune NxT flow cytometer (Thermo Fisher Scientific).

GFP [1] = details: for reduction of GFP protein levels: 120 hrs at 37°C
Experimental: Third, the ability of the VHH A, once conjugated to siGFPst1, to trigger hTfR-mediated endocytosis and subsequent delivery into the cytosol of target cells in pharmacological amounts was assessed. The VHH A-siGFPst1 or the control VHH Z-siGFPst1 bioconjugates were incubated on CHO-hTfR-GFP cells at 1 µM during 120 hrs at 37°C to allow free uptake, delivery to the cytosol and gene silencing to take place at the mRNA transcript and protein levels. […] Next, the VHH A-siGFPst1 bioconjugate was incubated on CHO-hTfR-GFP cells at concentrations ranging from 3 µM to 10 pM during 120 hrs.
Fifth, the TfR-mediated GFP-silencing effect of the VHH A-siGFPst1 bioconjugate was evaluated using a pulse-chase procedure. CHO-hTfR-GFP cells were exposed to VHH A-siGFPst1 at concentrations ranging from 300 nM to 1 pM during a short duration (6 hours), followed by chase in ligand-free medium up to a total duration of 120 hrs.
Finally, the ability of the VHH B to trigger hTfR-mediated endocytosis and subsequent gene silencing was evaluated by incubating the VHH B-siGFPst1 bioconjugate on CHO-hTfR-GFP cells at 30 nM during 120 hrs. […] To the best of our knowledge, receptor-mediated hepatocyte uptake through the asialoglycoprotein receptor (ASGPR) using triantennary GalNAc as a targeting ligand is the only ligand/receptor system able to trigger specific and efficient gene silencing at nanomolar concentrations. However, the use of this system for in vivo therapeutic applications with therapeutic nucleic acids is restricted to hepatic targets, since ASGPR is expressed in vivo exclusively in hepatocytes.

GFP [2] = test system: GFP
Experimental: Second, the intrinsic silencing activity of the VHH-siGFPst1 bioconjugate was assessed in living CHO cell lines stably expressing the TfR fused to EGFP (CHO-hTfR-EGFP cells) by transfection of the conjugate at 25 nM using Dharmafect 1 (Dharmacon) for direct delivery into the cytosol. The total cellular amount of GFP was quantified 72 hours post-transfection using flow cytometry. […] In another series of experiments, the VHH A-siGFPst1 conjugate was transfected on CHO-hTfR-EGFP cells at concentrations ranging from 10 nM to 1 pM and the total cellular amount of GFP was quantified 120 hours post-transfection using flow cytometry.

| Molecule | apparent hTfR-binding affinity (Kd app) (human TfR) | reduction of GFP protein levels (GFP [1]; free uptake, 30 nM) | GFP protein levels, % of the control levels (GFP [1]; 30 nM with 100X excess of free VHH A, 120 hrs) | GFP protein levels, % of the control levels (GFP [1]; 30 nM with 100X excess of free VHH B, 120 hrs) | competition of the silencing effect (GFP [1]; 30 nM with 100X excess of irrelevant VHH Z, 120 hrs) | reduction of GFP protein levels (GFP [1]; free uptake, 1 µM) | maximum silencing efficiency (GFP [1]; free uptake, continuous 120 hrs) | IC50 (GFP [2]; read-out: IC50 (reduction of GFP protein levels), transfection 10 nM to 1 pM, 120 hours) | maximum silencing efficiency (GFP [2]; transfection 10 nM to 1 pM, 120 hours) | reduction of GFP protein levels (GFP [2]; transfection at 25 nM, 72 hours post-transfection) |
| --- | --- | --- | --- | --- | --- | --- | --- | --- | --- | --- |
| VHH A-NODAGA: VHH A-azide reacted with NODAGA-BCN (conjugate) VHH: EVQLVESGGGVVQPGGSLKLSCVASGTDFSINFIRWYRQAPGKQREFVAGFTATGNTNYADSMKGRFTISRDNTKNAVYLQIDSLKPEDTAVYYCYMLDKWGQGTQVTVSSAAAEQKLISEEDLNGAAHHHHHHGSAAAHHHHHHGGGLQR | low nanomolar range |  |  |  |  |  |  |  |  |  |
| VHH A-68Ga: VHH A-NODAGA radiolabeled using 68Ga chloride (conjugate) VHH: EVQLVESGGGVVQPGGSLKLSCVASGTDFSINFIRWYRQAPGKQREFVAGFTATGNTNYADSMKGRFTISRDNTKNAVYLQIDSLKPEDTAVYYCYMLDKWGQGTQVTVSSAAAEQKLISEEDLNGAAHHHHHHGSAAAHHHHHHGGGLQR | low nanomolar range |  |  |  |  |  |  |  |  |  |
| VHH B-siGFPst1: siGFPst1 conjugated to VHH B (conjugate) VHH: EVQLVESGGGVVQPGGSLRLSCAASGEIFSINFMRWYRQAPGKQREWVAGFTRDGSTNYPDSAKGRFTISRDNAKNTVYLQIDSLKPEDTAVYYCYMLDTWGQGTQVTVSSAAAEQKLISEEDLNGAAHHHHHHGS | low nanomolar range | ca. -60% |  |  |  |  |  |  |  |  |
| VHH A-siGFPst1: siGFPst1 conjugated to a tagged VHH A (conjugate) VHH: EVQLVESGGGVVQPGGSLKLSCVASGTDFSINFIRWYRQAPGKQREFVAGFTATGNTNYADSMKGRFTISRDNTKNAVYLQIDSLKPEDTAVYYCYMLDKWGQGTQVTVSSAAAEQKLISEEDLNGAAHHHHHHGS | low nanomolar range | ca. 60% | 85% | 96% | no competition | ca. -70% | -61.6 ± 2.9% | 0.0504 nM | -90.2% | ca. 85% |
